The results in this text go back to US8748182B2, “Mutant proteins and methods for producing them” (Heptares Therapeutics Limited, priority 2007, dated 2014).

The series can be described thus: Thermostability of solubilised adenosine A2a receptor and mutants (radioligand binding after or during heating). Conditions: for thermostability measured with 3H-NECA (agonist) / thermostability assayed with 3H-ZM241385 (antagonist): Ligand(−) format, binding after the heating step. The series is classed as physicochemical. The text has this:
FIG. 12 Flow chart showing the two different assay formats of ligand (+) and ligand (−) used to determine receptor thermostablity.
• 1. 315 site-directed mutants made between residues 2-316 of A2aR. • 2. All of these mutants have been assayed for thermostability using an assay measuring agonist and antagonist binding after the heating step (Ligand(−) format as described in FIG. 12). • a. […] Mutations have been combined to generate mutants in a putative antagonist conformation. Wildtype A2aR has a Tm of 31° C. with ZM241385 bound. • a. Rant17 A54L+K122A+L235A Tm 48° C. (ZM241385 bound) • b. Rant19 A54L,T88A,V239A+A204L Tm 47° C. (ZM241385 bound) • c. Rant21 A54L,T88A,V239A+K122A Tm 49° C. (ZM241385 bound) • 4. Mutations from the agonist screen have been combined, but have led to only a very low level of improvement in Tm of +2° C.

Positions count from the first letter of the chain named. Names may count otherwise.

B1: E219A: A2aR point mutant (protein, UniProt P29274 1-412, looked up, variant E219A)
Adenosine receptor A2a: MPIMGSSVYITVELAIAVLAILGNVLVCWAVWLNSNLQNVTNYFVVSLAAADIAVGVLAIPFAITISTGFCAACHGCLFIACFVLVLTQSSIFSLLAIAIDRYIAIRIPLRYNGLVTGTRAKGIIAICWVLSFAIGLTPMLGWNNCGQPKEGKNHSQGCGEGQVACLFEDVVPMNYMVYFNFFACVLVPLLLMLGVYLRIFLAARRQLKQMESQPLPGARARSTLQKEVHAAKSLAIIVGLFALCWLPLHIINCFTFFCPDCSHAPLWLMYLAIVLSHTNSVVNPFIYAYRIREFRQTFRKIIRSHVLRQQEPFKAAGTSARVLAAHGSDGEQVSLRLNGHPPGVWANGSAPHPERRPNGYALGLVSGGSAQESQGNTGLPDVELLSHELKGVCPEPPGLDDPLAQDGAGVS
With B1, the “thermostability measured with 3H-NECA (agonist)” value (“thermostability measured” for short) is recorded as “improved thermostability”.

B2: Rant17: A2aR with A54L+K122A+L235A (protein, UniProt P29274 1-412, looked up, variant A54L K122A L235A)
Adenosine receptor A2a: B1 Adenosine receptor A2a with A54L, K122A, A219E, L235A
As for B2, the “Tm (ZM241385 bound)” value stood at 48 °C.

B3: G114A: A2aR point mutant (protein, UniProt P29274 1-412, looked up, variant G114A)
Adenosine receptor A2a: B1 Adenosine receptor A2a with G114A, A219E
For B3, the “thermostability assayed with 3H-ZM241385 (antagonist)” value (shortened to “thermostability assayed”) is “improved thermostability” and the “thermostability measured” value is “improved thermostability”.

B4: L167A: A2aR point mutant (protein, UniProt P29274 1-412, looked up, variant L167A)
Adenosine receptor A2a: B1 Adenosine receptor A2a with L167A, A219E
In the case of B4, the “thermostability measured” value was “improved thermostability”.

B5: V57A: A2aR point mutant (protein, UniProt P29274 1-412, looked up, variant V57A)
Adenosine receptor A2a: B1 Adenosine receptor A2a with V57A, A219E
B5: the “thermostability assayed” value was “improved thermostability”.

B6: P149A: A2aR point mutant (protein, UniProt P29274 1-412, looked up, variant P149A)
Adenosine receptor A2a: B1 Adenosine receptor A2a with P149A, A219E
Consider B6, for which the “thermostability assayed” value is given as “improved thermostability”.

B7: Q226A: A2aR point mutant (protein, UniProt P29274 1-412, looked up, variant Q226A)
Adenosine receptor A2a: B1 Adenosine receptor A2a with A219E, Q226A
B7: the “thermostability measured” value was “improved thermostability”.

B8: H230A: A2aR point mutant (protein, UniProt P29274 1-412, looked up, variant H230A)
Adenosine receptor A2a: B1 Adenosine receptor A2a with A219E, H230A
With B8, the “thermostability measured” value is on record as “improved thermostability”.

B9: A231L: A2aR point mutant (protein, UniProt P29274 1-412, looked up, variant A231L)
Adenosine receptor A2a: B1 Adenosine receptor A2a with A219E, A231L
Take B9: the “thermostability assayed” value is “improved thermostability”.

B10: P313A: A2aR point mutant (protein, UniProt P29274 1-412, looked up, variant P313A)
Adenosine receptor A2a: B1 Adenosine receptor A2a with A219E, P313A
With B10, the “thermostability measured” value is recorded as “improved thermostability”.

B11: Rant19: A2aR with A54L, T88A, V239A+A204L (protein, UniProt P29274 1-412, looked up, variant A54L T88A V239A A204L)
Adenosine receptor A2a: B1 Adenosine receptor A2a with A54L, T88A, A204L, A219E, V239A
As to B11, the “Tm (ZM241385 bound)” value stood at 47 °C.

B12: K315A: A2aR point mutant (protein, UniProt P29274 1-412, looked up, variant K315A)
Adenosine receptor A2a: B1 Adenosine receptor A2a with A219E, K315A
As to B12, the “thermostability measured” value was “improved thermostability”.

B13: N284A: A2aR point mutant (protein, UniProt P29274 1-412, looked up, variant N284A)
Adenosine receptor A2a: B1 Adenosine receptor A2a with A219E, N284A
Consider B13, for which the “thermostability measured” value is “improved thermostability”.

B14: Q311A: A2aR point mutant (protein, UniProt P29274 1-412, looked up, variant Q311A)
Adenosine receptor A2a: B1 Adenosine receptor A2a with A219E, Q311A
Regarding B14, the “thermostability measured” value was “improved thermostability”.

B15: T224A: A2aR point mutant (protein, UniProt P29274 1-412, looked up, variant T224A)
Adenosine receptor A2a: B1 Adenosine receptor A2a with A219E, T224A
As for B15, the “thermostability measured” value is “improved thermostability”.

B16: T88A: A2aR point mutant (protein, UniProt P29274 1-412, looked up, variant T88A)
Adenosine receptor A2a: B1 Adenosine receptor A2a with T88A, A219E
Take B16: the “thermostability assayed” value was “improved thermostability”.

B17: K227A: A2aR point mutant (protein, UniProt P29274 1-412, looked up, variant K227A)
Adenosine receptor A2a: B1 Adenosine receptor A2a with A219E, K227A
Take B17: the “thermostability measured” value was “improved thermostability”.

B18: L267A: A2aR point mutant (protein, UniProt P29274 1-412, looked up, variant L267A)
Adenosine receptor A2a: B1 Adenosine receptor A2a with A219E, L267A
With B18, the “thermostability measured” value is “improved thermostability”.

B19: S263A: A2aR point mutant (protein, UniProt P29274 1-412, looked up, variant S263A)
Adenosine receptor A2a: B1 Adenosine receptor A2a with A219E, S263A
For the molecule B19, the “thermostability measured” value is reported as “improved thermostability”.

B20: R220A: A2aR point mutant (protein, UniProt P29274 1-412, looked up, variant R220A)
Adenosine receptor A2a: B1 Adenosine receptor A2a with A219E, R220A
With B20, the “thermostability measured” value was “improved thermostability”.

B21: T119A: A2aR point mutant (protein, UniProt P29274 1-412, looked up, variant T119A)
Adenosine receptor A2a: B1 Adenosine receptor A2a with T119A, A219E
As to B21, the “thermostability assayed” value is listed as “improved thermostability”.

B22: L235A: A2aR point mutant (protein, UniProt P29274 1-412, looked up, variant L235A)
Adenosine receptor A2a: B1 Adenosine receptor A2a with A219E, L235A
As for B22, the “thermostability assayed” value is given as “improved thermostability”.

B23: K122A: A2aR point mutant (protein, UniProt P29274 1-412, looked up, variant K122A)
Adenosine receptor A2a: B1 Adenosine receptor A2a with K122A, A219E
As for B23, the “thermostability assayed” value is listed as “improved thermostability”.

B24: G123A: A2aR point mutant (protein, UniProt P29274 1-412, looked up, variant G123A)
Adenosine receptor A2a: B1 Adenosine receptor A2a with G123A, A219E
Consider B24, for which the “thermostability assayed” value is given as “improved thermostability”.

B25: G118A: A2aR point mutant (protein, UniProt P29274 1-412, looked up, variant G118A)
Adenosine receptor A2a: B1 Adenosine receptor A2a with G118A, A219E
For the molecule B25, the “thermostability assayed” value is listed as “improved thermostability” and the “thermostability measured” value is on record as “improved thermostability”.

B26: H75A: A2aR point mutant (protein, UniProt P29274 1-412, looked up, variant H75A)
Adenosine receptor A2a: B1 Adenosine receptor A2a with H75A, A219E
For the molecule B26, the “thermostability assayed” value was “improved thermostability”.

B27: L272A: A2aR point mutant (protein, UniProt P29274 1-412, looked up, variant L272A)
Adenosine receptor A2a: B1 Adenosine receptor A2a with A219E, L272A
Regarding B27, the “thermostability measured” value is “improved thermostability”.

B28: A184L: A2aR point mutant (protein, UniProt P29274 1-412, looked up, variant A184L)
Adenosine receptor A2a: B1 Adenosine receptor A2a with A184L, A219E
In the case of B28, the “thermostability measured” value is listed as “improved thermostability”.

B29: V239A: A2aR point mutant (protein, UniProt P29274 1-412, looked up, variant V239A)
Adenosine receptor A2a: B1 Adenosine receptor A2a with A219E, V239A
Regarding B29, the “thermostability assayed” value is given as “improved thermostability”.

B30: A204L: A2aR point mutant (protein, UniProt P29274 1-412, looked up, variant A204L)
Adenosine receptor A2a: B1 Adenosine receptor A2a with A204L, A219E
Consider B30, for which the “thermostability assayed” value is reported as “improved thermostability”.

B31: P260A: A2aR point mutant (protein, UniProt P29274 1-412, looked up, variant P260A)
Adenosine receptor A2a: B1 Adenosine receptor A2a with A219E, P260A
For the molecule B31, the “thermostability measured” value is reported as “improved thermostability”.

B32: A54L: A2aR point mutant (protein, UniProt P29274 1-412, looked up, variant A54L)
Adenosine receptor A2a: B1 Adenosine receptor A2a with A54L, A219E
Consider B32, for which the “thermostability assayed” value was “improved thermostability”.

B33: L241A: A2aR point mutant (protein, UniProt P29274 1-412, looked up, variant L241A)
Adenosine receptor A2a: B1 Adenosine receptor A2a with A219E, L241A
For the molecule B33, the “thermostability measured” value is “improved thermostability”.

B34: G152A: A2aR point mutant (protein, UniProt P29274 1-412, looked up, variant G152A)
Adenosine receptor A2a: B1 Adenosine receptor A2a with G152A, A219E
With B34, the “thermostability assayed” value is on record as “improved thermostability”.

B35: S223A: A2aR point mutant (protein, UniProt P29274 1-412, looked up, variant S223A)
Adenosine receptor A2a: B1 Adenosine receptor A2a with A219E, S223A
With B35, the “thermostability measured” value is listed as “improved thermostability”.

B36: E151A: A2aR point mutant (protein, UniProt P29274 1-412, looked up, variant E151A)
Adenosine receptor A2a: B1 Adenosine receptor A2a with E151A, A219E
With B36, the “thermostability assayed” value is on record as “improved thermostability”.
